Values quoted from earlier work as cited in PMC5472698.

Biological target: CD21 (Homo sapiens) (UniProt P20023)
Sequence (P20023 21-1033): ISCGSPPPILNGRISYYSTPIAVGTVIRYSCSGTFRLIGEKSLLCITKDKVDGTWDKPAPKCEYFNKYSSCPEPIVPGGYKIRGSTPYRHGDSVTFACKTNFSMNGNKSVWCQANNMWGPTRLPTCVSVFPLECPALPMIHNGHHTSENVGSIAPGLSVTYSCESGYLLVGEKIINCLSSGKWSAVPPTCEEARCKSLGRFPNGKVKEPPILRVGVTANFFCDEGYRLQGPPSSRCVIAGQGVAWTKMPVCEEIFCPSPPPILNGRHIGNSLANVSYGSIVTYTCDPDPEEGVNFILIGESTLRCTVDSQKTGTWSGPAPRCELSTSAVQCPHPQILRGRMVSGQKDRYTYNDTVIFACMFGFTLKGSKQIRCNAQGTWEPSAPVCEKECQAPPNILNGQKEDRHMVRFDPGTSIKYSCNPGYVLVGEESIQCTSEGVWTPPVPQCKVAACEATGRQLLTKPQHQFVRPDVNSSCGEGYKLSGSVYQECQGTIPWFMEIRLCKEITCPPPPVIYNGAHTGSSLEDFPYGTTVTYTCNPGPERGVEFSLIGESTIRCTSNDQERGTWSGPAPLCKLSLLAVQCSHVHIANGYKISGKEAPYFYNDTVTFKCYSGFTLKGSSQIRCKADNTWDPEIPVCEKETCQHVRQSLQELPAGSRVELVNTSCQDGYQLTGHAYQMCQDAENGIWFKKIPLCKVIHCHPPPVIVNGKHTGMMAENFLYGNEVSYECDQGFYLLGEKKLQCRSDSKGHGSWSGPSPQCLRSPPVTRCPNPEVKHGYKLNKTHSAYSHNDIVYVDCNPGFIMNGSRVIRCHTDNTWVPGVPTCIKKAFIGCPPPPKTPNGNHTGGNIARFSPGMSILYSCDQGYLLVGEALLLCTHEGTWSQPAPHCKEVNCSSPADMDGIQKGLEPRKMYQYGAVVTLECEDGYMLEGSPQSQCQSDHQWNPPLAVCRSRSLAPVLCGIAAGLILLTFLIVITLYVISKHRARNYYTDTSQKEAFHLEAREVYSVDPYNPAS

Sequence of gp350/220 (P03200 whole entry): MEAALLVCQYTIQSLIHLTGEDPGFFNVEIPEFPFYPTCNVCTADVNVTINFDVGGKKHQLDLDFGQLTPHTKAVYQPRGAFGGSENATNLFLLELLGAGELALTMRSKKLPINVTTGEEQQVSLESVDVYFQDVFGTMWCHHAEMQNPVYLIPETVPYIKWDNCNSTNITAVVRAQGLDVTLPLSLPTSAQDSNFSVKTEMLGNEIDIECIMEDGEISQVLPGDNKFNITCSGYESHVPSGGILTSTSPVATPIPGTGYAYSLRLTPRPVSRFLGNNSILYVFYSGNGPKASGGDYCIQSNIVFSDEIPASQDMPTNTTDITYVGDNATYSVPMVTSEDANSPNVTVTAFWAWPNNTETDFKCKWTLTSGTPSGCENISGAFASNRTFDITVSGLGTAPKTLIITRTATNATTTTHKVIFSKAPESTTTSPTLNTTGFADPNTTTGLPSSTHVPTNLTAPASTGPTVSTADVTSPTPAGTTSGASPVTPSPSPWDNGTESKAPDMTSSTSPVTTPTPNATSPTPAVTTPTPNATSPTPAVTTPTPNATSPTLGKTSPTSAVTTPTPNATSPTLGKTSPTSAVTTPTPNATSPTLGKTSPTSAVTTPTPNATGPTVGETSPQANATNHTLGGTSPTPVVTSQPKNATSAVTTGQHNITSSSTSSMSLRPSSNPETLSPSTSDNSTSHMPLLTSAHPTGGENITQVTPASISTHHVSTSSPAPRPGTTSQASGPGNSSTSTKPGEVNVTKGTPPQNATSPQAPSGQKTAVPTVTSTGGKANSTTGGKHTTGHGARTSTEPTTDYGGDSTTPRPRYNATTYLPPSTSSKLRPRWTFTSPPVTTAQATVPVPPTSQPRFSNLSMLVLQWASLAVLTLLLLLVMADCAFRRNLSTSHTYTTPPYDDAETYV

## gp350/220 (from UniProt P03200)
  Kd: 12 nM
